Data reported in article PMC7524730.
Where two headings read alike, the source gives them in different places.

Tests used:
[1] = biological target: PRMT5 (UniProt O14744); assay: co-IP and immunoblot; conditions: reference: LSH wild type; sites S503

For “LSH (lymphoid-specific helicase; HELLS, PASG, SMARCA6): R541A”, the other (methylation at R541) was “no change”.
With “LSH (lymphoid-specific helicase; HELLS, PASG, SMARCA6): R507A” the other (methylation at R507) was “no change”.
For “LSH (lymphoid-specific helicase; HELLS, PASG, SMARCA6): S503D phosphomimic”, the other (phosphorylation at S503) was “decreases”.
In the case of “LSH (lymphoid-specific helicase; HELLS, PASG, SMARCA6): R309A”, the localisation_or_trafficking (methylation at R309) is reported as “no change” and the other (methylation at R309) is reported as “increases”.
For “LSH (lymphoid-specific helicase; HELLS, PASG, SMARCA6): S503A”, the localisation_or_trafficking (phosphorylation at S503) was “no change” and the other (phosphorylation at S503) was “increases”.
In the case of “LSH (lymphoid-specific helicase; HELLS) (from UniProt Q9NRZ9) LSH S503A”, the “binding against the reference” value [1] is reported as “stronger”.
In the case of “LSH (lymphoid-specific helicase; HELLS, PASG, SMARCA6): MAPK1 shRNA knockdown; LY3214996 (MAPK1/2 inhibitor)”, the other (phosphorylation at S503) is reported as “increases”.
With “LSH (lymphoid-specific helicase; HELLS, PASG, SMARCA6): Lambda Protein Phosphatase (λPP)” the other (phosphorylation at S503) was “increases”.
